From patent US20250043302A1, “MUTATED HYDROXYPHENYLPYRUVATE DIOXYGENASE POLYPEPTIDE, AND CODING GENE AND USE THEREOF” (BEIJING DABEINONG BIOTECHNOLOGY CO., LTD., priority 2021, published 2025)

Experiments:
Assay type in all cases: in vivo
[1] = system: Arabidopsis thaliana T1 plants; assay: Topramezone tolerance of transgenic Arabidopsis thaliana T1 plants (spray, bleached leaf area grade, damage score); conditions: 7 DAT, Table 4; for Classification and statistics of the grade of pesticide damage: Grade 0 / Classification and statistics of the grade of pesticide damage: Grade 1 / Classification and statistics of the grade of pesticide damage: Grade 2 / Classification and statistics of the grade of pesticide damage: Grade 3: number of plants; for Scores: pesticide damage score 0-100
In short: (§1)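 Read-out: per-plant damage grade 0–3 from proportion of bleached leaf area at 7 DAT (1 <50%, 2 >50%, 3 100%). Plants were T1 transformants, glufosinate-selected, plus wild-type CK, sprayed 18 days post-sowing. Rates: topramezone 25–200, isoxaflutole 35–280, mesotrione 52.5–420 g ai/ha.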

[2] = system: Arabidopsis thaliana T1 plants; assay: Isoxaflutole tolerance of transgenic Arabidopsis thaliana T1 plants (spray, bleached leaf area grade, damage score); parameters: Scores (pesticide damage): scale not given here; conditions: spray, Arabidopsis thaliana T1 plants; for Classification and statistics of the grade of pesticide damage: Grade 0 (number of plants) / Classification and statistics of the grade of pesticide damage: Grade 1 (number of plants) / Classification and statistics of the grade of pesticide damage: Grade 2 (number of plants) / Classification and statistics of the grade of pesticide damage: Grade 3 (number of plants): 16 plants
In short: as §1

[3] = system: Arabidopsis thaliana T1 plants; assay: Mesotrione tolerance of transgenic Arabidopsis thaliana T1 plants (spray, bleached leaf area grade, damage score); parameters: Scores: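 damage score 0-100 computed as Σ(N×S)/(T×M)×100 over grades 0-3 with higher meaning more damage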; conditions: Arabidopsis thaliana T1 plants; for Grade 0 (classification and statistics of the grade of pesticide damage; number of plants) / Grade 1 (classification and statistics of the grade of pesticide damage; number of plants) / Grade 2 (classification and statistics of the grade of pesticide damage; number of plants) / Grade 3 (classification and statistics of the grade of pesticide damage; number of plants): 16 plants
In short: as §1

[4] = system: soybean T1 plants; assay: Topramezone tolerance of transgenic soybean T1 plants; conditions: different concentrations
Procedure: T1 transformants were initially selected from the untransformed seeds using a glufosinate selection scheme. […] The degree of damage caused by the herbicide was measured for each plant according to the proportion of bleached leaf area (the proportion of bleached leaf area=bleached leaf area/total leaf area×100%) 7 days after spraying (7 DAT): the case where there is basically no bleached phenotype is defined as grade 0, the case where the proportion of bleached leaf area is less than 50% is defined as grade 1, the case where the proportion of bleached leaf area is more than 50% is defined as grade 2, and the case where the proportion of bleached leaf area is 100% grade is defined as grade 3.
The soybean T1 plants into which the SbHPPD-02 nucleotide sequence was introduced, soybean T1 plants into which the SbHPPDm-F372A-02 nucleotide sequence was introduced, soybean T1 plants into which the SbHPPDm-F383W-02 nucleotide sequence was introduced, soybean T1 plants into which the SbHPPDm-F372A-F383W-02 nucleotide sequence was introduced, soybean T1 plants into which the control vector DBN11726N nucleotide sequence was introduced, and wild-type soybean plants (V3-V4 at seedling stage) were sprayed with topramezone at three different concentrations (i.e., 25 g ai/ha (one-fold field concentration, 1×). […] According to the method in point 6 of Example 1, after 7 days of spraying (7 DAT), the damage degree of each plant by the herbicide was statistically analyzed, and the scoring and resistance evaluation were carried out accordingly. […]

[5] = system: soybean T1 plants; assay: Isoxaflutole tolerance of transgenic soybean T1 plants; conditions: different concentrations
[6] = system: soybean T1 plants; assay: Mesotrione tolerance of transgenic soybean T1 plants; conditions: different concentrations
[7] = isoxaflutole 35 g ai/ha (0.5x field concentration)
[8] = isoxaflutole 70 g ai/ha (1x field concentration)

B1: SbHPPDm-F383W-02: nucleotide sequence encoding Sorghum bicolor HPPD with F383W; vector DBN11760 (nucleic acid)
DNA: ATGCCGCCCACTCCAACAACTGCTGCTGCGACGGGAGCAGCTGTCGCCGCTGCTTCTGCTGAGCAGGCTGCCTTCAGGCTCGTCGGGCACAGAAATTTTGTTCGTGTAAATCCAAGGAGTGATAGGTTCCACACCTTGGCTTTTCACCACGTGGAGTTGTGGTGTGCTGATGCAGCCTCGGCAGCGGGGCGCTTCTCGTTTGGTCTCGGTGCTCCGCTCGCCGCAAGATCTGATCTTAGCACTGGAAACACAGCGCATGCCTCCCTGCTCCTGCGCTCTGGCGCGCTGGCGTTCCTCTTCACGGCGCCATATGCTCACGGCGCCGACGCCGCCACCGCGTCATTGCCGTCTTTTAGTGCAGCCGAAGCAAGAAGATTTGCAGCAGACCACGGCCTCGCCGTAAGGGCCGTGGCCTTACGTGTCGCCGATGCCGAAGATGCTTTCCGCGCCTCTGTAGCAGCTGGAGCAAGGCCAGCATTTGAACCTGTTGAATTGGGGTTAGGATTCCGTCTTGCAGAAGTTGAGCTTTATGGCGACGTTGTTTTGAGATACGTTTCATATCCTGATGACGCTGACGCTAGCTTCTTGCCTGGTTTTGTGGGGGTGACATCACCTGGGGCAGCAGATTATGGTCTCAGGCGGTTTGATCATATTGTTGGAAACGTTCCTGAACTCGCGCCGGCGGCAGCCTACTTCGCCGGTTTCACTGGGTTTCATGAATTTGCTGAATTCACAGCCGAGGATGTCGGCACCACCGAGAGTGGACTGAACTCCATGGTGCTGGCCAACAATGCAGAGAATGTCCTTCTTCCCTTGAATGAACCAGTTCATGGAACAAAAAGGCGTTCCCAAATACAAACATACCTCGACCATCATGGTGGACCAGGCGTTCAGCATATGGCTCTCGCTAGTGACGATGTTCTACGAACCCTGCGAGAGATGCAGGCGCGGTCTGCAATGGGAGGATTTGAGTTCATGGCACCTCCTGCCCCTGAATATTATGATGGTGTTCGGAGAAGGGCAGGTGATGTGCTAACTGAAGCTCAAATCAAGGAGTGCCAGGAGCTTGGCGTGCTGGTCGATCGGGATGATCAAGGTGTGCTTCTGCAGATTTTTACTAAACCAGTGGGTGACCGCCCCACGCTGTGGCTAGAGATCATCCAGAGAATAGGGTGCATGGAGAAGGACGAAAAAGGACAAGAGTACCAGAAGGGAGGTTGTGGCGGCTTTGGAAAAGGGAACTTCTCCCAATTATTCAAGTCAATTGAAGACTATGAAAAGAGTTTGGAGGCTAAGCAAGCTGCAGCCGCCCAGGGCAGCTGA
modifications: SbHPPDm-F383W-02 Nucleotide Sequence
notes: vector DBN11760
- Classification and statistics of the grade of pesticide damage: Grade 0 ([1]; topramezone 25 g ai/ha (1×)): 7
- Classification and statistics of the grade of pesticide damage: Grade 1 ([1]; topramezone 25 g ai/ha (1×)): 6
- Classification and statistics of the grade of pesticide damage: Grade 2 ([1]; topramezone 25 g ai/ha (1×)): 3
- Classification and statistics of the grade of pesticide damage: Grade 3 ([1]; topramezone 25 g ai/ha (1×)): 0
- Classification and statistics of the grade of pesticide damage: Grade 0 ([1]; topramezone 100 g ai/ha (4×)): 0
- Classification and statistics of the grade of pesticide damage: Grade 1 ([1]; topramezone 100 g ai/ha (4×)): 0
- Classification and statistics of the grade of pesticide damage: Grade 2 ([1]; topramezone 100 g ai/ha (4×)): 0
- Classification and statistics of the grade of pesticide damage: Grade 3 ([1]; topramezone 100 g ai/ha (4×)): 16
- Scores ([1]; topramezone 25 g ai/ha (1×)): 25
- Scores ([1]; topramezone 100 g ai/ha (4×)): 100
- Resistance evaluation ([1]; topramezone 25 g ai/ha (1×)): moderately
- Resistance evaluation ([1]; topramezone 100 g ai/ha (4×)): non-resistant (non-resistant plants (scores 68-100))
- Resistance evaluation [2, 7]: Poorly
- Scores (pesticide damage) [2, 7]: 65
- Classification and statistics of the grade of pesticide damage: Grade 0 (number of plants) [2, 7]: 0
- Classification and statistics of the grade of pesticide damage: Grade 1 (number of plants) [2, 7]: 1
- Classification and statistics of the grade of pesticide damage: Grade 2 (number of plants) [2, 7]: 15
- Classification and statistics of the grade of pesticide damage: Grade 3 (number of plants) [2, 7]: 0
- Resistance evaluation [2, 8]: Non-resistant
- Scores (pesticide damage) [2, 8]: 100
- Classification and statistics of the grade of pesticide damage: Grade 0 (number of plants) [2, 8]: 0
- Classification and statistics of the grade of pesticide damage: Grade 1 (number of plants) [2, 8]: 0
- Classification and statistics of the grade of pesticide damage: Grade 2 (number of plants) [2, 8]: 0
- Classification and statistics of the grade of pesticide damage: Grade 3 (number of plants) [2, 8]: 16
- Resistance evaluation ([3]; mesotrione 52.5 g ai/ha): Non-resistant
- Scores ([3]; mesotrione 52.5 g ai/ha): 69
- Grade 0 (classification and statistics of the grade of pesticide damage; number of plants) ([3]; mesotrione 52.5 g ai/ha): 0
- Grade 1 (classification and statistics of the grade of pesticide damage; number of plants) ([3]; mesotrione 52.5 g ai/ha): 5
- Grade 2 (classification and statistics of the grade of pesticide damage; number of plants) ([3]; mesotrione 52.5 g ai/ha): 5
- Grade 3 (classification and statistics of the grade of pesticide damage; number of plants) ([3]; mesotrione 52.5 g ai/ha): 6
- Resistance evaluation ([3]; mesotrione 105 g ai/ha): Non-resistant
- Scores ([3]; mesotrione 105 g ai/ha): 100
- Grade 0 (classification and statistics of the grade of pesticide damage; number of plants) ([3]; mesotrione 105 g ai/ha): 0
- Grade 1 (classification and statistics of the grade of pesticide damage; number of plants) ([3]; mesotrione 105 g ai/ha): 0
- Grade 2 (classification and statistics of the grade of pesticide damage; number of plants) ([3]; mesotrione 105 g ai/ha): 0
- Grade 3 (classification and statistics of the grade of pesticide damage; number of plants) ([3]; mesotrione 105 g ai/ha): 16
- tolerance to HPPD-inhibitor herbicides (in words): topramezone [4]: different degrees of tolerance
- tolerance to HPPD-inhibitor herbicides (in words): isoxaflutole [5]: different degrees of tolerance
- tolerance to HPPD-inhibitor herbicides (in words): mesotrione [6]: different degrees of tolerance
